Test results: article PMC11480844

B1: H2-Kb / B13 (parent)
chain 1: AQKVTQTQTSISVMEKTTVTMDCVYETQDSSYFLFWYKQTASGEIVFLIRQDSYKKENATVGHYSLNFQKPKSSIGLIITATQIEDSAVYFCAMREGTGGYKVVFGSGTRLLVSP
chain 2: EAAVTQSPRNKVTVTGGNVTLSCRQTNSHNYMYWYRQDTGHGLRLIHYSYGAGNLQIGDVPDGYKATRTTQEDFFLLLELASPSQTSLYFCASSDGTGHEQYFGPGTRLTVL
chain 3: not shown
chain 4: IQKTPQIQVYSRHPPENGKPNILNCYVTQFHPPHIEIQMLKNGKKIPKVEMSDMSFSKDWSFYILAHTEFTPTETDTYACRVKHDSMAEPKTVYWDRDM
chain 5: SIINFEKL
B2: H2-Kb / E8 (parent)
chain 1: GDSVTQTEGLVTVTEGLPVKLNCTYQTTYLTIAFFWYVQYLNEAPQVLLKSSTDNKRTEHQGFHATLHKSSSSFHLQKSSAQLSDSALYYCALNTNTGKLTFGDGTVLTVKP
chain 2: EAAVTQSPRNKVAVTGGKVTLSCNQTNNHNNMYWYRQDTGHGLRLIHYSYGAGSTEKGDIPDGYKASRPSQENFSLILELATPSQTSVYFCASGDWGAGTGQLYFGEGSKLTVL
chain 3: not shown
chain 4: B1 chain 4
chain 5: SIINFEKL
B3: H2-Kb / E9 (parent)
chain 1: QQKVQQSPESLTVSEGAMASLNCTFSDRSSDNFRWYRQHSGKGLEVLVSIFSDGEKEEGSFTAHLNRASLHVFLHIREPQPSDSALYLCAVSRSSGSWQLIFGSGTQLTVMP
chain 2: NSGVVQSPRYIIKGKGERSILKCIPISGHLSVAWYQQTQGQELKFFIQHYDKMERDKGNLPSRFSVQQFDDYHSEMNMSALELEDSAVYFCASSRDSNNQAPLFGEGTRLSVL
chain 3: not shown
chain 4: B1 chain 4
chain 5: SIINFEKL
B4: H2-Kb / H5 (parent)
chain 1: GEQVEQRPPHLSVREGDSAVIICTYTDPNSYYFFWYKQEPGAGLQLLMKVFSSTEINEGQGFTVLLNKKDKQLSLNLTAAHPGDSAVYFCAVSNYGSSGNKLIFGIGTLLSVKP
chain 2: EAAVTQSPRNKVAVTGGKVTLSCNQTNNHNNMYWYRQDTGHGLRLIHYSYGAGSTEKGDIPDGYKASRPSQENFSLILELATPSQTSVYFCASGDRERDTQYFGPGTRLLVL
chain 3: not shown
chain 4: B1 chain 4
chain 5: SIINFEKL

Variants of: B1
Test: % of reporter cells activated (NFAT-GFP), raw
Settings: with B13; scale: % of reporter cells activated
Further: test concentration or dose not given here.

Ratio to parent, by site and new letter:
chain 5 I3: P 5.54, T 1.56, N 1.58, Y 0.117, M 5.23, W 0.293, E 4.51, R 1.96, H 1.64, K 0.422, F 0.122, S 1.98, A 4.66, G 1.07, Q 4.85, C 5.34, D 0.0646, L 2.17, V 2.29
chain 5 L8: N 3, Y 0.812, H 0.954, E 2.13, K 0.45, Q 0.247, C 3.32, R 1.98, S 2.06, I 0.992, M 0.471, F 0.189, D 2.32, W 0.423, P 2.29, G 1.21, V 0.393, T 0.331, A 0.227
chain 5 E6: A 0.0525, N 0.0224, H 0.0361, S 0.0411, M 0.0342, R 0.024, G 0.0583, T 0.0399, F 0.0355, P 0.101, I 0.0222, D 0.0608, Q 0.0298, L 0.0292, C 0.0215, Y 0.0507, V 0.038, K 0.611, W 0.0431
chain 5 N4: V 0.0342, I 0.179, C 0.0444, Q 0.0444, D 0.0238, P 0.0596, G 0.101, S 0.0507, T 0.0378, R 0.104, A 0.052, W 0.025, H 0.038, L 0.0811, M 0.0596, E 0.156, F 0.393, K 0.0279, Y 0.0196
chain 5 F5: C 0.132, A 0.131, I 0.0887, Y 0.712, M 0.316, V 0.331, D 0.179, T 0.195, R 0.0811, E 0.0684, S 0.0431, P 0.144, K 0.15, H 0.366, L 0.117, G 0.0418, W 0.0204, Q 0.0482, N 0.0634
chain 5 S1: D 0.113, G 0.236, R 6.17, C 0.0621, N 0.0976, P 0.139, K 0.64, Q 0.392, M 1.15, A 0.835, T 0.544, W 1.35, V 0.857, Y 0.11, E 0.113, I 0.381, H 0.0963, F 0.0232, L 0.112
chain 5 K7: R 0.987, T 1.03, A 0.722, W 1.27, Q 0.887, S 1.02, I 1.32, V 2.07, G 0.471, M 4.28, Y 0.195, H 0.431, P 0.0545, N 1.14, F 1.21, D 0.108, E 0.113, L 3.14, C 1.38
chain 5 I2: S 0.848, G 0.284, K 1.84, C 1.49, T 1.09, M 0.411, P 0.285, L 1.48, H 1, F 1.01, Q 0.243, E 0.75, A 1.04, R 1.49, D 0.523, Y 2.07, W 2.33, N 0.347, V 1.98

Variants of: B2
Test: % of reporter cells activated (NFAT-GFP), raw
Settings: with E8; scale: % of reporter cells activated

Ratio to parent of substitutions, site by site:
chain 5 E6: A 0.159, D 0.546, K 0.03, I 0.0166, N 0.03, H 0.0243, F 0.018, L 0.0214, P 0.169, M 0.0317, R 0.0462, C 0.0282, W 0.0496, S 0.0471, T 0.0257, Q 0.115, G 0.193, V 0, Y 0.00591
chain 5 F5: H 1.61, E 0.539, C 1.41, K 0.557, I 0.735, G 1.93, L 0.68, A 1.63, D 0.0471

Variants of: B3
Test: % of reporter cells activated (NFAT-GFP), raw
Settings: with E9; scale: % of reporter cells activated

Ratio to parent: each site, then its substitutions
chain 5 S1: Y 1.2, W 1.2

Variants of: B4
Test: % of reporter cells activated (NFAT-GFP), raw
Settings: with H5; scale: % of reporter cells activated

Ratio to parent: each site, then its substitutions
chain 5 L8: D 0.352, C 0.781, W 0.255, Y 0.755, A 0.709, Q 0.842, E 0.49, F 0.423, T 0.719, K 0.837, R 0.485, P 0.332, M 0.689, S 0.464, G 0.515, H 0.985, V 0.531, I 0.786, N 0.281
chain 5 F5: V 0.617, Q 0.638, Y 0.765, E 0.352, T 0.367, R 0.311, S 0.531, W 0.515, P 0.459, M 1.13, A 0.923, L 0.663, G 0.316, K 0.362, D 0.439, C 0.816, I 2.01, N 0.48, H 0.719
chain 5 N4: M 0.352, V 0.332, L 0.469, D 0.316, H 8.69, Q 0.245, P 0.255, I 0.347, K 0.592, A 0.301, E 0.367, C 0.49, T 0.352, R 0.454, F 1.27, Y 1.1, G 0.362, S 0.332, W 0.5
chain 5 E6: T 0.459, W 0.25, K 0.332, L 0.265, H 0.643, S 0.444, D 0.235, M 0.311, N 0.301, F 0.296, I 0.408, V 0.342, Q 0.357, R 0.362, G 0.306, C 0.342, A 0.454, Y 0.332, P 0.301
chain 5 S1: Q 0.469, V 0.388, M 2.39, W 0.332, I 0.454, G 0.25, L 0.398, D 0.281, R 0.852, N 0.352, C 0.316, H 0.474, T 0.587, E 0.281, A 0.474, Y 0.27, P 0.383, K 0.602, F 0.638
chain 5 K7: E 4.34, Q 0.592, V 0.75, W 0.352, N 0.893, L 0.638, P 0.551, D 0.597, F 0.306, R 1.01, H 0.806, Y 0.383, I 1.12, A 0.648, M 0.362, T 1.8, G 0.811, C 0.77, S 0.76
chain 5 I3: S 0.276, F 0.276, C 0.5, Q 0.337, L 0.74, A 0.306, P 0.49, D 0.265, H 0.372, W 0.286, E 0.357, G 0.347, N 0.367, Y 0.321, K 0.423, R 0.403, M 0.327, V 0.985, T 0.352
chain 5 I2: E 0.408, S 0.75, V 1.03, C 0.74, W 0.378, H 0.332, Y 0.352, T 0.526, K 0.388, R 0.24, G 0.505, L 0.607, D 0.505, P 0.327, M 0.684, N 0.362, Q 0.454, A 0.663, F 0.653
